Article PMC9514218 (Protein Science : A Publication of the Protein Society, 2022)
Where a chain is given by its changes, count along the chain named. Blank lines part the entries; values can stand above or below the binder they belong to. Ends that are not written are not given here.

Assays:
[1] = target: T1, SURP1 (res. 48–110) of human SF3A1, wild type (human, UniProt Q15459 48-110); assay: BLI
T1 sequence: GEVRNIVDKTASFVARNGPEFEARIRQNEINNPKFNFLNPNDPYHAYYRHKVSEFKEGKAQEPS

[2] = target: T2, SURP1 (res. 48–110) of human SF3A1, K80D mutant (human, UniProt Q15459 48-110, K80D); assay: BLI
T2 sequence: T1 sequence with K34D

[3] = target: T3, SURP1 (res. 48–110) of human SF3A1, K80Q mutant (human, UniProt Q15459 48-110, K80Q); assay: BLI
T3 sequence: T1 sequence with K34Q

[4] = target: T4, SURP1 (res. 48–110) of human SF3A1, R62E mutant (human, UniProt Q15459 48-110, R62E); assay: BLI
T4 sequence: T1 sequence with R16E

[5] = target: T5, SURP1 (res. 48–110) of human SF3A1, R62Q mutant (human, UniProt Q15459 48-110, R62Q); assay: BLI
T5 sequence: T1 sequence with R16Q

[6] = target: T6, SURP1 (res. 48–110) of human SF3A1, N63E mutant (human, UniProt Q15459 48-110, N63E); assay: BLI
T6 sequence: T1 sequence with N17E

[7] = target: T7, SURP1 (res. 48–110) of human SF3A1, N63Q mutant (human, UniProt Q15459 48-110, N63Q); assay: BLI
T7 sequence: T1 sequence with N17Q

[8] = target: T1, SURP1 (res. 48–110) of human SF3A1, …; assay: NMR solution structure

- Kd [1]: 15.2 µM
- Kd [2]: 132 µM
- Kd [3]: 64.2 µM
- Kd [4]: 393 µM
- Kd [5]: 187 µM
- Kd [6]: 251 µM
- Kd [7]: 139 µM
B1: biotin-tagged SF1 S1BRp (res. 295–327) (peptide, UniProt Q15637 295-327, looked up)
peptide: QRPGDPQSAQDKARMDKEYLSLMAELGEAPVPA
modifications: also: biotin (position not given here)

- binding result [8]: binds
B2: S1BR (res. 295–327) of SF1 as it stands in the chimera (domain or fragment, human, UniProt Q15637 295-327, looked up)
chain: B1 peptide

- Kd [1]: 17.3 µM
B3: biotin-tagged SF1 S1BRp (res. 295–335) (peptide, UniProt Q15637 295-335, looked up)
peptide: QRPGDPQSAQDKARMDKEYLSLMAELGEAPVPASVGSTSGP
modifications: also: biotin (position not given here)
